# B1: ETV5 30-mer (MST) (dsDNA)
# DNA 1: GGCGTTTTTTATGAATGAAAAACGTCCTCC
# DNA 2: GGAGGACGTTTTTCATTCATAAAAAACGCC
# B2: random-site 30-mer (EMSA) (dsDNA)
# DNA 1: GGCGTTTTTTAGTCGCTGCAAACGTCCTCC
# DNA 2: GGAGGACGTTTGCAGCGACTAAAAAACGCC
# B3: ETV5 18-mer (crystal) (dsDNA)
# DNA 1: GGTTATGAATGAAAAACC
# DNA 2: GGTTTTTCATTCATAACC
# B4: ETV5 30-mer (EMSA) (dsDNA)
# DNA 1: B1 DNA 1
# DNA 2: B1 DNA 2
# Experiments:
# [1] = target: CICmin18 R1515H (human, UniProt Q96RK0-2 188-280+=F+1457-1527, R1515H;internal_change); test: MST
# [2] = target: CICmin18 R1512H (human, UniProt Q96RK0-2 188-280+=F+1457-1527, R1512H;internal_change); test: MST
# [3] = target: CICmin18 M1519D (human, UniProt Q96RK0-2 188-280+=F+1457-1527, M1519D;internal_change); test: MST
# [4] = target: T1, CICmin18 WT (human, UniProt Q96RK0-2;Q96RK0-2); test: MST
# [5] = target: CICmin31 M1519D (human, UniProt Q96RK0-2 188-294+1457-1527, M1519D;internal_change); test: MST
# [6] = target: CICmin31 WT (human, UniProt Q96RK0-2 188-294+1457-1527, internal_change); test: MST
# [7] = target: CICmin31 R201W (human, UniProt Q96RK0-2;Q96RK0-2, R201W); test: MST
# [8] = target: CICmin31 R1515H (human, UniProt Q96RK0-2 188-294+1457-1527, R1515H;internal_change); test: MST
# [9] = target: CICmin31 R215W (human, UniProt Q96RK0-2 188-294+1457-1527, R215W;internal_change); test: MST
# [10] = target: T1, CICmin18 WT; test: EMSA
# [11] = target: CICmin31 WT (IVT) (human, UniProt Q96RK0-2 188-294+1457-1527, internal_change); test: EMSA
# [12] = target: T1, CICmin18 WT; test: X-ray crystallography 2.95 A
# [13] = target: CICmin31 R201W (IVT) (human, UniProt Q96RK0-2 188-294+1457-1527, R201W;internal_change); test: EMSA
binder,measurement,setting,value
B1,apparent K (half saturation),[1],16.7 nM
same,apparent K (half saturation),[2],14.6 nM
same,apparent K (half saturation),[3],50.3 nM
same,apparent K (half saturation),[4],15.5 nM
same,apparent K (half saturation),[5],32.2 nM
same,apparent K (half saturation),[6],226 nM
same,apparent K (half saturation),[7],171 nM
same,apparent K (half saturation),[8],1430 nM
same,apparent K (half saturation),[9],151 nM
B2,binding result,[10],no binding
same,binding result,[11],no binding
B3,binding result,[12],binds
B4,binding result,[13],binds

# — article PMC13152641
